Source: ChEMBL document CHEMBL1146311, “Carbonic anhydrase activators: L-Adrenaline plugs the active site entrance of isozyme II, activating better isoforms I, IV, VA, VII, and XIV” (Bioorg Med Chem Lett, 2007)

Key:
Conditions in all cases: Homo sapiens; 10 uM
[1] = substrate: CNC[C@H](O)c1ccc(O)c(O)c1
Description: (§1) Activity of human recombinant CA4 at 10 uM by stopped-flow technique

[2] = substrate: NCCc1c[nH]cn1
Description: as §1

[3] = substrate: CNC[C@H](O)c1ccc(O)c(O)c1; remark: listed apart in the source
Description: (§2) Activity of human recombinant CA7 at 10 uM by stopped-flow technique

[4] = substrate: NCCc1c[nH]cn1; remark: listed apart in the source
Description: as §2

[5] = substrate: CNC[C@H](O)c1ccc(O)c(O)c1; remark: listed apart in the source
Description: (§3) Activity of human recombinant CA14 at 10 uM by stopped-flow technique

[6] = substrate: NCCc1c[nH]cn1; remark: listed apart in the source
Description: as §3

[7] = substrate: CNC[C@H](O)c1ccc(O)c(O)c1; remark: listed apart in the source
Description: (§4) Activity of human recombinant CA5A at 10 uM by stopped-flow technique

[8] = substrate: NCCc1c[nH]cn1; remark: listed apart in the source
Description: as §4

B1: Carbonic anhydrase 4 (Homo sapiens), P22748 (protein)
chain: MRMLLALLALSAARPSASAESHWCYEVQAESSNYPCLVPVKWGGNCQKDRQSPINIVTTKAKVDKKLGRFFFSGYDKKQTWTVQNNGHSVMMLLENKASISGGGLPAPYQAKQLHLHWSDLPYKGSEHSLDGEHFAMEMHIVHEKEKGTSRNVKEAQDPEDEIAVLAFLVEAGTQVNEGFQPLVEALSNIPKPEMSTTMAESSLLDLLPKEEKLRHYFRYLGSLTTPTCDEKVVWTVFREPIQLHREQILAFSQKLYYDKEQTVSMKDNVRPLQQLGQRTVIKSGAPGRPLPWALPALLGPMLACLLAGFLR
[1]
  kcat: 2.9 10^6/s
[2]
  kcat: 3.5 10^6/s

B2: Carbonic anhydrase 7 (Homo sapiens), P43166 (protein)
chain: MTGHHGWGYGQDDGPSHWHKLYPIAQGDRQSPINIISSQAVYSPSLQPLELSYEACMSLSITNNGHSVQVDFNDSDDRTVVTGGPLEGPYRLKQFHFHWGKKHDVGSEHTVDGKSFPSELHLVHWNAKKYSTFGEAASAPDGLAVVGVFLETGDEHPSMNRLTDALYMVRFKGTKAQFSCFNPKCLLPASRHYWTYPGSLTTPPLSESVTWIVLREPICISERQMGKFRSLLFTSEDDERIHMVNNFRPPQPLKGRVVKASFRA
[3]
  kcat: 10.4 10^5/s
[4]
  kcat: 15.2 10^5/s

B3: Carbonic anhydrase 14 (Homo sapiens), Q9ULX7 (protein)
chain: MLFSALLLEVIWILAADGGQHWTYEGPHGQDHWPASYPECGNNAQSPIDIQTDSVTFDPDLPALQPHGYDQPGTEPLDLHNNGHTVQLSLPSTLYLGGLPRKYVAAQLHLHWGQKGSPGGSEHQINSEATFAELHIVHYDSDSYDSLSEAAERPQGLAVLGILIEVGETKNIAYEHILSHLHEVRHKDQKTSVPPFNLRELLPKQLGQYFRYNGSLTTPPCYQSVLWTVFYRRSQISMEQLEKLQGTLFSTEEEPSKLLVQNYRALQPLNQRMVFASFIQAGSSYTTGEMLSLGVGILVGCLCLLLAVYFIARKIRKKRLENRKSVVFTSAQATTEA
[5]
  kcat: 4.5 10^5/s
[6]
  kcat: 10 10^5/s

B4: Carbonic anhydrase 5A, mitochondrial (Homo sapiens), P35218 (protein)
chain: MLGRNTWKTSAFSFLVEQMWAPLWSRSMRPGRWCSQRSCAWQTSNNTLHPLWTVPVSVPGGTRQSPINIQWRDSVYDPQLKPLRVSYEAASCLYIWNTGYLFQVEFDDATEASGISGGPLENHYRLKQFHFHWGAVNEGGSEHTVDGHAYPAELHLVHWNSVKYQNYKEAVVGENGLAVIGVFLKLGAHHQTLQRLVDILPEIKHKDARAAMRPFDPSTLLPTCWDYWTYAGSLTTPPLTESVTWIIQKEPVEVAPSQLSAFRTLLFSALGEEEKMMVNNYRPLQPLMNRKVWASFQATNEGTRS
[7]
  kcat: 3.9 10^5/s
[8]
  kcat: 8.6 10^5/s
